Experiments:
[1] = biological target: Crotalus durissus terrificus (C.d.t.) venom; experiment: ELISA, venom-coated wells (5 µg/ml); dilution 1:625
[2] = biological target: Crotalus durissus terrificus (C.d.t.) venom; experiment: ELISA, venom-coated wells; dilution 1:312,500
[3] = biological target: Crotalus durissus terrificus (C.d.t.) venom; experiment: ELISA, venom-coated wells; dilution printed 1.5
[4] = biological target: Crotalus durissus terrificus (C.d.t.) venom; experiment: ELISA, venom-coated wells; dilution 1:3125
[5] = biological target: Crotalus durissus terrificus (C.d.t.) venom; experiment: ELISA, venom-coated wells; dilution 1:25
[6] = biological target: Crotalus durissus terrificus (C.d.t.) venom; experiment: ELISA, venom-coated wells (5 µg/ml); dilution 1:3125
[7] = biological target: Crotalus durissus terrificus (C.d.t.) venom; experiment: ELISA, venom-coated wells (5 µg/ml); dilution 1:5
[8] = biological target: Crotalus durissus terrificus (C.d.t.) venom; experiment: ELISA, venom-coated wells (5 µg/ml); dilution 1:125
[9] = biological target: Crotalus durissus terrificus (C.d.t.) venom; experiment: ELISA, venom-coated wells; dilution 1:125
[10] = biological target: Crotalus durissus terrificus (C.d.t.) venom; experiment: ELISA, venom-coated wells; dilution 1:62,500
[11] = biological target: Crotalus durissus terrificus (C.d.t.) venom; experiment: ELISA, venom-coated wells; dilution 1:625
[12] = biological target: Crotalus durissus terrificus (C.d.t.) venom; experiment: ELISA, venom-coated wells (5 µg/ml); undiluted
[13] = biological target: Crotalus durissus terrificus (C.d.t.) venom; experiment: ELISA, venom-coated wells (5 µg/ml); dilution 1:25

Substance: preimmune IgY (antibody)
- ELISA absorbance [1]: 0 absorbance
- ELISA absorbance (absorbance (412 nm filter)) [2]: 0.01
- ELISA absorbance [3]: < 0 absorbance
- ELISA absorbance [4]: < 0 absorbance
- ELISA absorbance [5]: 0.016 absorbance
- ELISA absorbance [6]: 0.002 absorbance
- ELISA absorbance [7]: < 0 absorbance
- ELISA absorbance [8]: 0.003 absorbance
- ELISA absorbance [9]: < 0 absorbance
- ELISA absorbance (absorbance (412 nm filter)) [10]: 0.001
- ELISA absorbance [11]: < 0 absorbance
- ELISA absorbance [12]: 0.003 absorbance
- ELISA absorbance [13]: 0 absorbance

Source: patent US20030054493A1
